{
  "source": "paper doi:10.1101/2021.01.30.428949",
  "about": "(bioRxiv, 2021)",
  "molecules": {"B1": {"name": "At2-CysPRXA, oxidized (H2O2-treated) (enzyme, Arabidopsis thaliana, UniProt Q96291 66-266, looked up)", "chain": "KAQADDLPLVGNKAPDFEAEAVFDQEFIKVKLSDYIGKKYVILFFYPLDFTFVCPTEITAFSDRHSEFEKLNTEVLGVSVDSVFSHLAWVQTDRKSGGLGDLNYPLISDVTKSISKSFGVLIHDQGIALRGLFIIDKEGVIQHSTINNLGIGRSVDETMRTLQALQYIQENPDEVCPAGWKPGEKSMKPDPKLSKEYFSAI", "modifications": "disulfide bond of the peroxidatic cysteine (CysP54) with the resolving cysteine (CysR176)"}, "B2": {"name": "At2-CysPRXA, hyperoxidized (H2O2 plus DTT) (enzyme, Arabidopsis thaliana, UniProt Q96291 66-266, looked up)", "chain": "B1 chain", "modifications": "C54 thiol hyperoxidized to a sulfinic acid residue"}, "B3": {"name": "Arabidopsis thaliana 2-Cysteine peroxiredoxin A (At2-CysPRXA), wildtype, reduced (enzyme, UniProt Q96291 66-266, looked up)", "chain": "B1 chain"}, "B4": {"name": "human peroxiredoxin HsPRX3, reduced (enzyme, UniProt P30048 62-256, looked up)", "chain": "APAVTQHAPYFKGTAVVNGEFKDLSLDDFKGKYLVLFFYPLDFTFVCPTEIVAFSDKANEFHDVNCEVVAVSVDSHFSHLAWINTPRKNGGLGHMNIALLSDLTKQISRDYGVLLEGSGLALRGLFIIDPNGVIKHLSVNDLPVGRSVEETLRLVKAFQYVETHGEVCPANWTPDSPTIKPSPAASKEYFQKVNQ"}, "B5": {"name": "human peroxiredoxin HsPRX2, reduced (enzyme, UniProt P32119 1-198, looked up)", "chain": "MASGNARIGKPAPDFKATAVVDGAFKEVKLSDYKGKYVVLFFYPLDFTFVCPTEIIAFSNRAEDFRKLGCEVLGVSVDSQFTHLAWINTPRKEGGLGPLNIPLLADVTRRLSEDYGVLKTDEGIAYRGLFIIDGKGVLRQITVNDLPVGRSVDEALRLVQAFQYTDEHGEVCPAGWKPGSDTIKPNVDDSKEYFSKHN"}, "B6": {"name": "human peroxiredoxin HsPRX1, reduced (enzyme, UniProt Q06830 1-199, looked up)", "chain": "MSSGNAKIGHPAPNFKATAVMPDGQFKDISLSDYKGKYVVFFFYPLDFTFVCPTEIIAFSDRAEEFKKLNCQVIGASVDSHFCHLAWVNTPKKQGGLGPMNIPLVSDPKRTIAQDYGVLKADEGISFRGLFIIDDKGILRQITVNDLPVGRSVDETLRLVQAFQFTDKHGEVCPAGWKPGSDTIKPDVQKSKEYFSKQK"}},
  "assay_in_all_cases": "mass photometry",
  "key": {"[1]": {"biological_target": "At2-CysPRXA F84R variant (Arabidopsis thaliana)"}, "[2]": {"biological_target": "At2-CysPRXA C54S variant (Arabidopsis thaliana)"}, "mass photometry [3]": {"biological_target": "the molecule itself"}, "mass photometry [4]": {"biological_target": "the molecule itself", "remark": "listed apart in the source"}, "mass photometry [5]": {"biological_target": "the molecule itself", "remark": "listed apart in the source"}, "mass photometry [6]": {"biological_target": "the molecule itself", "remark": "listed apart in the source"}, "mass photometry [7]": {"biological_target": "the molecule itself", "remark": "listed apart in the source"}},
  "note": "Values joined by “and” are separate entries in the source; they are usually repeats but may differ in a detail not shown here. Identical values can stand only once. Like-named read-outs stand apart in the source and are kept apart here.",
  "data": [
    {"molecule": "At2-CysPRXA F84R variant (enzyme)", "values": [
      {"measurement": "stoichiometry N", "setting": "[1]", "result": "2 and 4"}
    ]},
    {"molecule": "At2-CysPRXA C54S variant (enzyme)", "values": [
      {"measurement": "stoichiometry N", "setting": "[2]", "result": 10}
    ]},
    {"molecule": "B1", "values": [
      {"measurement": "stoichiometry N", "setting": "mass photometry [3]", "result": 2}
    ]},
    {"molecule": "B2", "values": [
      {"measurement": "stoichiometry N", "setting": "mass photometry [3]", "result": 10}
    ]},
    {"molecule": "B3", "values": [
      {"measurement": "ratio of dimer units in the decameric fraction to those in the dimer fraction", "setting": "mass photometry [4]", "result": "~5", "unit": "fold"},
      {"measurement": "Kd", "setting": "mass photometry [5]", "result": "< 50", "unit": "nM"},
      {"measurement": "stoichiometry N", "setting": "mass photometry [5]", "result": 20}
    ]},
    {"molecule": "B4", "values": [
      {"measurement": "stoichiometry N", "setting": "mass photometry [6]", "result": "40 and 20"},
      {"measurement": "stoichiometry N", "setting": "mass photometry [7]", "result": 2}
    ]},
    {"molecule": "B5", "values": [
      {"measurement": "stoichiometry N", "setting": "mass photometry [6]", "result": 20},
      {"measurement": "stoichiometry N", "setting": "mass photometry [7]", "result": 2}
    ]},
    {"molecule": "B6", "values": [
      {"measurement": "stoichiometry N", "setting": "mass photometry [7]", "result": 10}
    ]}
  ]
}
